This note sets out measurements from the RNAGym collection of RNA variant scans (doi:10.7554/elife.80360).

The labels stand for the following.
B1: Hammerhead Ribozyme (parent)
chain: ACCGGAUGUGCUUUCCGGUCUGAUGAGUCCGUGAGGACGAAACAG

The variants in the data set derive from B1. The data set is described as follows: self-cleavage, relative activity (ratio to wild type); higher = more cleavage; co-transcriptional.
Turning to ACCGGAUGUCCUUUCCGGUCUGAUCAGUCCGUGAGGACGAAACAG [G10C G25C], the self-cleavage was 0.397.

ACCGGAUGUCCUUUCCGGUCUGAUAAGUCCGUGAGGACGAAACAG [G10C G25A]: the self-cleavage came out at 0.368.

Take ACCGGAUGUCCUUUCCGGUCUGAUUAGUCCGUGAGGACGAAACAG [G10C G25U]: the self-cleavage is 0.277.

Consider ACCGGAUGUCCUGUCCGGUCUGAUGAGUCCGUGAGGACGAAACAG [G10C U13G], for which the self-cleavage turned out to be 1.24.

Turning to ACCGGAUGUCCUAUCCGGUCUGAUGAGUCCGUGAGGACGAAACAG [G10C U13A], the self-cleavage was found to be 1.03.

Regarding ACCGGAUGUCCUCUCCGGUCUGAUGAGUCCGUGAGGACGAAACAG [G10C U13C], the self-cleavage was 1.03.

Regarding ACCGGAUGUCCUUUCCGGUCUGAUGGGUCCGUGAGGACGAAACAG [G10C A26G], the self-cleavage worked out at 0.304.

Regarding ACCGGAUGUCCUUUCCGGUCUGAUGUGUCCGUGAGGACGAAACAG [G10C A26U], the self-cleavage came to 0.851.

With ACCGGAUGUCCUUUCCGGUCUGAUGCGUCCGUGAGGACGAAACAG [G10C A26C], the self-cleavage stood at 0.447.

For ACCGGAUGUCCUUUCCGGCCUGAUGAGUCCGUGAGGACGAAACAG [G10C U19C], the self-cleavage was 0.503.

For the variant ACCGGAUGUCCUUUCCGGGCUGAUGAGUCCGUGAGGACGAAACAG [G10C U19G], the self-cleavage is 0.353.

For ACCGGAUGUCCUUUCCGGACUGAUGAGUCCGUGAGGACGAAACAG [G10C U19A], the self-cleavage stood at 0.317.

Regarding ACCGGAUGUCCUUUCCGGUCUGAUGAGUCAGUGAGGACGAAACAG [G10C C30A], the self-cleavage stood at 0.989.

Take ACCGGAUGUCCUUUCCGGUCUGAUGAGUCUGUGAGGACGAAACAG [G10C C30U]: the self-cleavage was determined as 1.28.

For the variant ACCGGAUGUCCUUUCCGGUCUGAUGAGUCGGUGAGGACGAAACAG [G10C C30G], the self-cleavage was 0.675.

ACCGGAUGUCCUUUCCGGUCUGAUGAGUCCAUGAGGACGAAACAG [G10C G31A]: the self-cleavage was 1.25.

For the variant ACCGGAUGUCCUUUCCGGUCUGAUGAGUCCUUGAGGACGAAACAG [G10C G31U], the self-cleavage was determined as 1.19.

As to ACCGGAUGUCCUUUCCGGUCUGAUGAGUCCCUGAGGACGAAACAG [G10C G31C], the self-cleavage amounted to 0.704.

In the case of ACCGGAUGUCCUUUCCGGUCUGAUGAGUCCGUGAGGACGAAACAU [G10C G45U], the self-cleavage is 0.812.

Regarding ACCGGAUGUCCUUUCCGGUCUGAUGAGUCCGUGAGGACGAAACAC [G10C G45C], the self-cleavage was determined as 0.783.

Take ACCGGAUGUCCUUUCCGGUCUGAUGAGUCCGUGAGGACGAAACAA [G10C G45A]: the self-cleavage came out at 0.996.

As to ACCGGAUGUCCUUUCCGGUCUGAUGAGUCCGUGAGGACGAGACAG [G10C A41G], the self-cleavage turned out to be 0.392.

Turning to ACCGGAUGUCCUUUCCGGUCUGAUGAGUCCGUGAGGACGAUACAG [G10C A41U], the self-cleavage worked out at 0.358.

For the variant ACCGGAUGUCCUUUCCGGUCUGAUGAGUCCGUGAGGACGACACAG [G10C A41C], the self-cleavage is 0.299.

Turning to ACCGGAUGUCCUUUGCGGUCUGAUGAGUCCGUGAGGACGAAACAG [G10C C15G], the self-cleavage was 0.524.

Turning to ACCGGAUGUCCUUUACGGUCUGAUGAGUCCGUGAGGACGAAACAG [G10C C15A], the self-cleavage came out at 0.591.

With ACCGGAUGUCCUUUUCGGUCUGAUGAGUCCGUGAGGACGAAACAG [G10C C15U], the self-cleavage worked out at 1.01.

With ACCGGAUGUCCUUUCCGGUUUGAUGAGUCCGUGAGGACGAAACAG [G10C C20U], the self-cleavage was 0.487.

As for ACCGGAUGUCCUUUCCGGUAUGAUGAGUCCGUGAGGACGAAACAG [G10C C20A], the self-cleavage was 0.336.

In the case of ACCGGAUGUCCUUUCCGGUGUGAUGAGUCCGUGAGGACGAAACAG [G10C C20G], the self-cleavage amounted to 0.4.

As to ACCGGAUGUACUUUCCGGUCUGAUGAGUCCGAGAGGACGAAACAG [G10A U32A], the self-cleavage turned out to be 1.14.

Regarding ACCGGAUGUACUUUCCGGUCUGAUGAGUCCGGGAGGACGAAACAG [G10A U32G], the self-cleavage was 0.936.

In the case of ACCGGAUGUACUUUCCGGUCUGAUGAGUCCGCGAGGACGAAACAG [G10A U32C], the self-cleavage is 1.52.

Turning to ACCGGAUGUCCUUUCCGGUCUGAUGAGUCCGUAAGGACGAAACAG [G10C G33A], the self-cleavage is 1.14.

As for ACCGGAUGUCCUUUCCGGUCUGAUGAGUCCGUCAGGACGAAACAG [G10C G33C], the self-cleavage was 0.937.

Turning to ACCGGAUGUCCUUUCCGGUCUGAUGAGUCCGUUAGGACGAAACAG [G10C G33U], the self-cleavage is 0.934.

In the case of ACCGGAUGUCCUUUCCGGUCUGAUGAGUCCGUGAGGUCGAAACAG [G10C A37U], the self-cleavage is 0.576.

Regarding ACCGGAUGUCCUUUCCGGUCUGAUGAGUCCGUGAGGGCGAAACAG [G10C A37G], the self-cleavage worked out at 0.958.

Consider ACCGGAUGUCCUUUCCGGUCUGAUGAGUCCGUGAGGCCGAAACAG [G10C A37C], for which the self-cleavage worked out at 1.21.

On to ACCGGAUGUCCUUUCCGGUCUGAUGAGUCCGUGAGGACGCAACAG [G10C A40C], for which the self-cleavage was determined as 0.457.

For ACCGGAUGUCCUUUCCGGUCUGAUGAGUCCGUGAGGACGUAACAG [G10C A40U], the self-cleavage was determined as 0.28.

On to ACCGGAUGUCCUUUCCGGUCUGAUGAGUCCGUGAGGACGGAACAG [G10C A40G], for which the self-cleavage was found to be 0.398.

As for ACCGGAUGUCCUUUCCGGUCUGAUGAUUCCGUGAGGACGAAACAG [G10C G27U], the self-cleavage was found to be 0.555.

ACCGGAUGUCCUUUCCGGUCUGAUGAAUCCGUGAGGACGAAACAG [G10C G27A]: the self-cleavage was 0.887.

For ACCGGAUGUCCUUUCCGGUCUGAUGACUCCGUGAGGACGAAACAG [G10C G27C], the self-cleavage amounted to 0.994.

For ACCGGAUGUCCUUUCCGGUCUGAUGAGUCCGUGAGGACGAAACAG [G10C], the self-cleavage came out at 1.05.

ACCGGAUGUUCUUUCCGGUCUGAUGAGUCCGUGAGGACGAAACAG [G10U]: the self-cleavage is 1.07.

Consider ACCGGAUGUCCUUUCCGGUCUGAUGAGUACGUGAGGACGAAACAG [G10C C29A], for which the self-cleavage stood at 0.678.

Consider ACCGGAUGUCCUUUCCGGUCUGAUGAGUGCGUGAGGACGAAACAG [G10C C29G], for which the self-cleavage came to 0.638.

For the variant ACCGGAUGUCCUUUCCGGUCUGAUGAGUUCGUGAGGACGAAACAG [G10C C29U], the self-cleavage turned out to be 1.44.

Turning to ACCGGAUGUCCUUUCCGCUCUGAUGAGUCCGUGAGGACGAAACAG [G10C G18C], the self-cleavage worked out at 0.614.

Turning to ACCGGAUGUCCUUUCCGUUCUGAUGAGUCCGUGAGGACGAAACAG [G10C G18U], the self-cleavage stood at 0.746.

As for ACCGGAUGUCCUUUCCGAUCUGAUGAGUCCGUGAGGACGAAACAG [G10C G18A], the self-cleavage stood at 1.06.

As to ACCGGAUGUCCUUUCCGGUCUGCUGAGUCCGUGAGGACGAAACAG [G10C A23C], the self-cleavage came to 0.538.

For ACCGGAUGUCCUUUCCGGUCUGGUGAGUCCGUGAGGACGAAACAG [G10C A23G], the self-cleavage amounted to 0.309.

For ACCGGAUGUCCUUUCCGGUCUGUUGAGUCCGUGAGGACGAAACAG [G10C A23U], the self-cleavage amounted to 0.447.

On to ACCGGAUGUCCUUUCCGGUCCGAUGAGUCCGUGAGGACGAAACAG [G10C U21C], for which the self-cleavage was found to be 0.673.
